According to patent publication US20210198366A1 (NGM BIOPHARMACEUTICALS, published 2021):
One block for each binder: values may come before it.

Tests used:
[1] = biological target: T1, cynomolgus monkey B7-H7 expressed on HEK-293T cells (cynomolgus monkey); assay: FACS on HEK-293T cells expressing cyno B7-H7
T1 construct: also called cyno B7-H7; cells expressing cyno B7-H7
T1 chain: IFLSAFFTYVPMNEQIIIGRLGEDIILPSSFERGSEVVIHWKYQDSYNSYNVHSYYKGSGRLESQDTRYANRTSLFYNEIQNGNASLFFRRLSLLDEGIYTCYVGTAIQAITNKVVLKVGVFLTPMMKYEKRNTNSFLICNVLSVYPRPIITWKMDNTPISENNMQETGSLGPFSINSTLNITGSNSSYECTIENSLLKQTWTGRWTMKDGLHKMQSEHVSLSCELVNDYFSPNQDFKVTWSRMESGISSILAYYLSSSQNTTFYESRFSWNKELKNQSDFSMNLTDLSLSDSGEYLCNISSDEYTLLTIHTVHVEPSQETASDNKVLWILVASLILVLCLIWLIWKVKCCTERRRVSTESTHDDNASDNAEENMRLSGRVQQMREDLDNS

[2] = biological target: T2, soluble human B7-H7-Fc fusion protein (extracellular region of human B7-H7, aa 23-344, and a human Fc … (human, UniProt Q9UM44 23-344)); assay: FACS competition: antibody titrated against soluble hB7-H7-Fc binding to HEK-293 cells expressing human KIR3DL3
T2 construct: also called hB7-H7-Fc; soluble B7-H7
T2 sequence: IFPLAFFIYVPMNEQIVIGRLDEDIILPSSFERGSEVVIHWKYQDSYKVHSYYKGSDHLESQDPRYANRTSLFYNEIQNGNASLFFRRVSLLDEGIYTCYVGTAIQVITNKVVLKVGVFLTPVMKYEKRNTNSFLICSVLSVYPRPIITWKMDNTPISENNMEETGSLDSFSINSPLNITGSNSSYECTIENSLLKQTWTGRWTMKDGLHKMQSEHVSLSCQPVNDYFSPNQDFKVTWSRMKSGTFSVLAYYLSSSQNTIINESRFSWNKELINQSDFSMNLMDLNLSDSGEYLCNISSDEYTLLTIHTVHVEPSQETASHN
Experimental: (§1) Exemplary anti-B7-H7 antibodies identified by ELISA and FACS were tested for their ability to block binding of soluble B7-H7 to receptors KIR3DL3 or CD28H in a FACS assay. HEK-293 cells were transiently transfected with a construct encoding (i) a membrane-bound KIR3DL3 protein or (ii) a membrane-bound CD28H protein. After 48 hours, transfected cells were suspended in ice cold PBS containing 1% FBS and 0.1% sodium azide and incubated on ice in the presence of […]/ml of soluble human B7-H7-Fc protein and antibodies 2D7, 1D3, 28F3, 16D5, 2F10, 5F7, 5B10, 5C9, or 3H6 (serially diluted from […] to 4.6 ng/ml). A second incubation with an anti-human Fc secondary antibody was performed to detect cells bound by the soluble B7-H7-Fc. The cells were analyzed on a BD FACSCalibur instrument (BD Biosciences) and the data was processed using FlowJo software. Calculated IC50s are shown Table 12.

[3] = biological target: T3, human B7-H7 (soluble analyte in SPR) (human, UniProt Q9UM44 23-344, limits assumed); assay: SPR (Biacore), antibody captured by anti-Fc on CM5 chip, B7-H7 injected, 37 C
T3 sequence: T2 sequence
Experimental: (§2) The binding affinities of exemplary anti-B7-H7 antibodies to human B7-H7 and cyno B7-H7 were measured using SPR technology (Biacore system, GE Healthcare Life Sciences). Briefly, anti-Fc antibody (Sigma-Aldrich) was immobilized on all four flow cells of a CM5 chip using amine coupling reagents (GE Healthcare LifeSciences). Exemplary antibodies were captured on flow cells 2, 3, and 4 using flow cell 1 as a reference. Human B7-H7 or cyno B7-H7 (samples ranging from 0.62-40 nM) were injected at a flow rate of 50 μL/min at 37° C. Kinetic data were collected over time and fit using the simultaneous global fit equation to yield affinity constants (KD values) for each antibody.

[4] = biological target: T4, human B7-H7 expressed on the cell surface (human, UniProt Q9UM44 23-414); assay: FACS on HEK-293T cells expressing human B7-H7
T4 construct: also called hB7-H7; HHLA2
T4 sequence: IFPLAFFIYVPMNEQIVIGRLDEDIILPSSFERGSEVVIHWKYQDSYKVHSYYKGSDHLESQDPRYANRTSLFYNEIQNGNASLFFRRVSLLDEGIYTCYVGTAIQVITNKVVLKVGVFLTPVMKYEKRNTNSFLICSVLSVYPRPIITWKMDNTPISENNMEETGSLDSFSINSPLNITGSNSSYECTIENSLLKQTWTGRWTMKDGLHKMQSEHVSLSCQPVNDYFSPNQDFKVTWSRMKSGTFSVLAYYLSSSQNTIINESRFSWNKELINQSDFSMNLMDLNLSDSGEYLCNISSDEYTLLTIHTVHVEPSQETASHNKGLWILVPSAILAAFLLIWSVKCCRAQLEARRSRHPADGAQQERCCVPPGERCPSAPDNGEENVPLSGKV

[5] = biological target: T4, human B7-H7 expressed on the cell …; assay: cell-based or functional assay
[6] = biological target: T2, soluble human B7-H7-Fc fusion protein …; assay: FACS competition: antibody titrated against soluble hB7-H7-Fc binding to HEK-293 cells expressing human CD28H
Experimental: as §1

[7] = biological target: T3, human B7-H7 (soluble analyte in SPR); assay: SPR (Biacore)
Experimental: as §2
The binding affinity of Hz2D7 to human B7-H7 and cyno B7-H7 was determined using SPR technology (Biacore system) as described herein and compared with the binding affinity of the parental antibody and with a chimeric 2D7 antibody comprising the murine heavy chain and light chain variable regions of 2D7 and a human Fc region.

MFI [1]: 165 MFI
IC50 [2]: 2.6 nM
Kd [3]: 0.4 nM
MFI [4]: 152 MFI
IC50 [6]: 2.7 nM
B1: anti-B7-H7 antibody 28F5 (antibody, V domains shown)
VH: QVQLKESGPGLVAPSQSLSITCTVSGFSLTGYGVNWVRQPPGKGLEWLGVIWGDGSTDYNSVLKSRLSISKDNSKSQVFLKMNSLQTDDTARYYCAREATEYLYWYFDVWGAGTTVTVSS
VL: DIVLTQSPASLAVSLGQRATISCRASESVEYYGSSLMQWYQQKPGQPPKLLIFAASNVESGVPPRFSGSGSGTDFNLNIHPVDEDDIAMYFCQQGRRVPWTFGGGTKLEIK
notes: Mouse hybridoma antibody
Induction of NK-92 cytotoxicity EC50 [5]: 0.5 nM
Induction of NK-92 cytotoxicity Relative efficacy [5]: 150%

MFI [1]: 214 MFI
IC50 [2]: 5 nM
Kd [3]: 0.9 nM
MFI [4]: 247 MFI
IC50 [6]: 8 nM
B2: anti-B7-H7 antibody 1D3 (antibody, V domains shown)
VH: EVQLQQSGPELEKPGASVKISCKASGYSFTGYNMNWVKESNGRSLEWIGNIDPYSGGSTYNQKFKGKATMTVDKSSSTAYMQLKSLTSEDSAVYYCARSVYDAPWLAHWGQGTLVTVSA
VL: DIQMTQSPASLSASVGETVTITCRASENIYIYLAWYQQKQGKSPQLLVYNAKTLAEGVPSRFSGSGSGTQFSLKINRLQPEDFGNYYCQHHYGTPPTFGGGTKLEIK
notes: Mouse hybridoma antibody
Induction of NK-92 cytotoxicity EC50 [5]: 1.2 nM
Induction of NK-92 cytotoxicity Relative efficacy [5]: 136%

Kd [7]: < 0.1 nM
koff [7]: 1.01e-05 s⁻¹
B3: humanized anti-B7-H7 antibody Hz2D7 (antibody, human IgG1, kappa, V domains shown)
VH: QVQLVQSGAEVKKPGASVKVSCKTSGYTFTEYTMHWVRQAPGQGLEWMGGINPNNYGAPYNQKFKGRVTMTVDTSISTAYMELSRLRSDDTAVYYCASGGYYFDYWGQGTLVTVSS
VL: DIQMTQSPSSLSASVGDRVTITCKASQDVGTAVAWYQQKPGKAPKLLIYWAFTRHTGVPSRFSGSGSGTDYTLTISSLQPEDFATYYCQQHYDTPFTFGQGTKVEIKR

IC50 [2]: 2 nM
Kd [3]: < 0.1 nM
IC50 [6]: 2.1 nM
Kd [7]: < 0.1 nM
koff [7]: 1e-05 s⁻¹
B4: anti-B7-H7 antibody 2D7 (antibody, V domains shown)
VH: EVQLQQSGPELVKPGASVKISCKTSGYTFTEYTMHWVKQSHGKSLEWIGGINPNNYGAPYNQKFKGKATLTVDKSSNTAYMELRSLTSEDSAIYYCASGGYYFDYWGQGTTLTVSS
VL: DIVMTQSHKFMSTSFGDRVSITCKASQDVGTAVAWYQQKLGQSPKLLISWAFTRHTGVPDRFTGSGSGTDYTLTISSLQAEDLALYYCQQHYDTPFTFGSGTKLEIK
notes: Parental mouse hybridoma antibody raised against human B7-H7-Fc
Induction of NK-92 cytotoxicity EC50 [5]: 1 nM

Kd [7]: < 0.1 nM
koff [7]: 5.61e-06 s⁻¹
B5: chimeric 2D7 antibody comprising the murine heavy chain and light chain variable regions of 2D7 and a human Fc region (antibody, V domains shown)
VH: B4 VH
VL: B4 VL
